# T1: biotinylated IL-2 receptor beta gamma heterodimer Fc (IL-2RBG; Acro ILG-H5254) (UniProt P14784 27-239; P31785 23-262, biotinylated)
# T1 construct: bought heterodimer
# T1 sequence (looked up) 1: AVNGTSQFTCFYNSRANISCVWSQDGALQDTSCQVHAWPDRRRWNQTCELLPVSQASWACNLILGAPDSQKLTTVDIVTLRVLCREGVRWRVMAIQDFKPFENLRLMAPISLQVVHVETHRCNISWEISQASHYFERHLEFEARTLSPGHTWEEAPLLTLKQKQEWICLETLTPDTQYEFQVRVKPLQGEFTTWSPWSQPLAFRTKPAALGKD
# T1 sequence (looked up) 2: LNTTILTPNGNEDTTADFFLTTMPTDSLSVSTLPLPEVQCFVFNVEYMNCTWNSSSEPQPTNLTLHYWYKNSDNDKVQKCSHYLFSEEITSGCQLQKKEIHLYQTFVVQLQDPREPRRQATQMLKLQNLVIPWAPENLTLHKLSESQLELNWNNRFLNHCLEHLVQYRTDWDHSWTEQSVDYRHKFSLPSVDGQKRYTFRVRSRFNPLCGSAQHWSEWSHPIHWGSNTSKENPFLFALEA
# B1: AF4379 (other)
# heavy: APTSSSTKKTQLQLEHLLLDLQMILNGINNYKNPKLTDMLTFEFYMPKKATELKHLQCLERELKPLEEVLNLAQSKNFHLRPRDLISNINVIVLELKGSETTFMCEYADETATIVEFLNRWITFCQSIISTLTGGGGSGGGGSGGGGSGGGGSQVQLVQSGAEVKKPGASVKVSCKASGDTFTRYYVHWVRQAPGQGLEWMGIINPSGGYASYAQKFQGRVTMTRDTSTSTVYMELSSLRSEDTAVYYCAAGLFIWGQGTLVTVSSAKTTAPSVYPLAPVCGDTTGSSVTLGCLVKGYFPEPVTLTWNSGSLSSGVHTFPAVLQSDLYTLSSSVTVTSSTWPSQSITCNVAHPASSTKVDKKIEPRGPTIKPCPPCKCPAPNAAGGPSVFIFPPKIKDVLMISLSPIVTCVVVDVSEDDPDVQISWFVNNVEVHTAQTQTHREDYNSTLRVVSALPIQHQDWMSGKEFKCKVNNKDLGAPIERTISKPKGSVRAPQVYVLPPPEEEMTKKQVTLTCMVTDFMPEDIYVEWTNNGKTELNYKNTEPVLDSDGSYFMYSKLRVEKKNWVERNSYSCSVVHEGLHNHHTTKSFSRTPGK
# light: DIQMTQSPSSLSASVGDRVTITCRASQSIGRYLAWYQQKPGKAPKLLIYSASNLETGVPSRFSGSGSGTDFTLTISSLQPEDFATYYCQQYNSFPVTFGPGTKVDIKRADAAPTVSIFPPSSEQLTSGGASVVCFLNNFYPKDINVKWKIDGSERQNGVLNSWTDQDSKDSTYSMSSTLTLTKDEYERHNSYTCEATHKTSTSPIVKSFNRNEC
# B2: AF4403 (other)
# heavy 1: QVQLVESGGGVVQPGRSLRLDCKASGITFSNSGMHWVRQAPGKGLEWVAVIWYDGSKRYYADSVKGRFTISRDNSKNTLFLQMNSLRAEDTAVYYCATNDDYWGQGTLVTVSSAKTTAPSVYPLAPVCGDTTGSSVTLGCLVKGYFPEPVTLTWNSGSLSSGVHTFPAVLQSDLYTLSSSVTVTSSTWPSQSITCNVAHPASSTKVDKKIEPRGPTIKPCPPCKCPAPNAAGGPSVFIFPPKIKDVLMISLSPIVTCVVVDVSEDDPDVQISWFVNNVEVHTAQTQTHREDYNSTLRVVSALPIQHQDWMSGKEFKCKVNNKDLGAPIERTISKPKGSVRAPQVYVLPPPEEEMTKKQVTLTCMVTDFMPEDIYVEWTNNGKTELNYKNTEPVLDSDGSYFMYSDLRVEKKNWVERNSYSCSVVHEGLHNHHTTESFSRTPGGGGGSGGGGSGGGGSAPTSSSTKKTQLQLEHLLLDLQMILNGINNYKNPKLTDMLTFEFYMPKKATELKHLQCLERELKPLEEVLNLAQSKNFHLRPRDLISNINVIVLELKGSETTFMCEYADETATIVEFLNRWITFCQSIISTLT
# heavy 2: QVQLVESGGGVVQPGRSLRLDCKASGITFSNSGMHWVRQAPGKGLEWVAVIWYDGSKRYYADSVKGRFTISRDNSKNTLFLQMNSLRAEDTAVYYCATNDDYWGQGTLVTVSSAKTTAPSVYPLAPVCGDTTGSSVTLGCLVKGYFPEPVTLTWNSGSLSSGVHTFPAVLQSDLYTLSSSVTVTSSTWPSQSITCNVAHPASSTKVDKKIEPRGPTIKPCPPCKCPAPNAAGGPSVFIFPPKIKDVLMISLSPIVTCVVVDVSEDDPDVQISWFVNNVEVHTAQTQTHREDYNSTLRVVSALPIQHQDWMSGKEFKCKVNNKDLGAPIERTISKPKGSVRAPQVYVLPPPEKEMTKKQVSLTCLVKDFMPEDIYVEWTNNGKTELNYKNTEPVLKSDGSYFMYSKLTVEKKNWVERNSYSCSVVHEGLHNHHTTKSFSRTPGGGGGSGGGGSGGGGSGGGGSQVQLVQSGAEVKKPGASVKVSCKASGDTFTRYYVHWVRQAPGQGLEWMGIINPSGGYASYAQKFQGRVTMTRDTSTSTVYMELSSLRSEDTAVYYCAAGLFIWGQGTLVTVSSASGGGGSGGGGSGGGGSHASDIQMTQSPSSLSASVGDRVTITCRASQSIGRYLAWYQQKPGKAPKLLIYSASNLETGVPSRFSGSGSGTDFTLTISSLQPEDFATYYCQQYNSFPVTFGPGTKVDIKGGGSGGGSHHHHHH
# light: EIVLTQSPATLSLSPGERATLSCRASQSVSSYLAWYQQKPGQAPRLLIYDASNRATGIPARFSGSGSGTDFTLTISSLEPEDFAVYYCQQSSNWPRTFGQGTKVEIKRADAAPTVSIFPPSSEQLTSGGASVVCFLNNFYPKDINVKWKIDGSERQNGVLNSWTDQDSKDSTYSMSSTLTLTKDEYERHNSYTCEATHKTSTSPIVKSFNRNEC
# B3: AF4404 (other)
# heavy 1: B2 heavy 1
# heavy 2: QVQLVESGGGVVQPGRSLRLDCKASGITFSNSGMHWVRQAPGKGLEWVAVIWYDGSKRYYADSVKGRFTISRDNSKNTLFLQMNSLRAEDTAVYYCATNDDYWGQGTLVTVSSAKTTAPSVYPLAPVCGDTTGSSVTLGCLVKGYFPEPVTLTWNSGSLSSGVHTFPAVLQSDLYTLSSSVTVTSSTWPSQSITCNVAHPASSTKVDKKIEPRGPTIKPCPPCKCPAPNAAGGPSVFIFPPKIKDVLMISLSPIVTCVVVDVSEDDPDVQISWFVNNVEVHTAQTQTHREDYNSTLRVVSALPIQHQDWMSGKEFKCKVNNKDLGAPIERTISKPKGSVRAPQVYVLPPPEKEMTKKQVSLTCLVKDFMPEDIYVEWTNNGKTELNYKNTEPVLKSDGSYFMYSKLTVEKKNWVERNSYSCSVVHEGLHNHHTTKSFSRTPGGGGGSGGGGSGGGGSGGGGSQVQLVQSGAEVKKPGASVKVSCKASGYTFTDYYMHWVRQAPGQGLEWMGIINPRAGYTSYALKFQGRVTMTRDTSTSTVYMELSSLRSEDTAVYYCTSGWDVWGQGTLVTVSSASGGGGSGGGGSGGGGSHASDIQMTQSPSSLSASVGDRVTITCRASQSISTWLAWYQQKPGKAPKLLIYAASSLDSGVPSRFSGSGSGTDFTLTISSLQPEDFATYYCQQSYSFPVTFGQGTKVEIKGGGSGGGSHHHHHH
# light: B2 light
# B4: AF003955 (other)
# heavy 1: APASSSTKKTQLQLEHLLLDLQMILNGINNYKNPKLTRMLTAKFAMPKKATELKHLQCLEEELKPLEEVLNGAQSKNFHLRPRDLISNINVIVLELKGSETTFMCEYADETATIVEFLNRWITFAQSIISTLTGGGGSGGGGSGGGGSGGGGSQVQLVQSGAEVKKPGASVKVSCKASGHTFTRYYMHWVRQAPGQGLEWMGIINPSGGYATYAQKFQGRVTMTRDTSTSTVYMELSSLRSEDTAVYYCASGLFIWGQGTLVTVSSAKTTAPSVYPLAPVCGDTTGSSVTLGCLVKGYFPEPVTLTWNSGSLSSGVHTFPAVLQSDLYTLSSSVTVTSSTWPSQSITCNVAHPASSTKVDKKIEPRGPTIKPCPPCKCPAPNAAGGPSVFIFPPKIKDVLMISLSPIVTCVVVDVSEDDPDVQISWFVNNVEVHTAQTQTHREDYNSTLRVVSALPIQHQDWMSGKEFKCKVNNKDLGAPIERTISKPKGSVRAPQVYVLPPPEEEMTKKQVTLTCMVTDFMPEDIYVEWTNNGKTELNYKNTEPVLDSDGSYFMYSDLRVEKKNWVERNSYSCSVVHEGLHNHHTTESFSRTPGK
# heavy 2: QVQLVQSGAEVKKPGASVKVSCKASGHTFTRYYMHWVRQAPGQGLEWMGIINPSGGYATYAQKFQGRVTMTRDTSTSTVYMELSSLRSEDTAVYYCASGLFIWGQGTLVTVSSAKTTAPSVYPLAPVCGDTTGSSVTLGCLVKGYFPEPVTLTWNSGSLSSGVHTFPAVLQSDLYTLSSSVTVTSSTWPSQSITCNVAHPASSTKVDKKIEPRGPTIKPCPPCKCPAPNAAGGPSVFIFPPKIKDVLMISLSPIVTCVVVDVSEDDPDVQISWFVNNVEVHTAQTQTHREDYNSTLRVVSALPIQHQDWMSGKEFKCKVNNKDLGAPIERTISKPKGSVRAPQVYVLPPPEKEMTKKQVSLTCLVKDFMPEDIYVEWTNNGKTELNYKNTEPVLKSDGSYFMYSKLTVEKKNWVERNSYSCSVVHEGLHNHHTTKSFSRTPGGGGSGGGSHHHHHH
# light: DIQMTQSPSSLSASVGDRVTITCRASQSINSWLAWYQQKPGKAPKLLIYATSTLESGVPSRFSGSGSGTDFTLTISSLQPEDFATYYCQQYYRFPVTFGQGTKVEIKRADAAPTVSIFPPSSEQLTSGGASVVCFLNNFYPKDINVKWKIDGSERQNGVLNSWTDQDSKDSTYSMSSTLTLTKDEYERHNSYTCEATHKTSTSPIVKSFNRNEC
# notes: also called AF3955
# Key:
# PD-1-Fc = PD-1-Fc (UniProt Q15116 25-167, limits assumed); assay: cell-based or functional assay
# Sequence of PD-1-Fc (Q15116 25-167 limits assumed): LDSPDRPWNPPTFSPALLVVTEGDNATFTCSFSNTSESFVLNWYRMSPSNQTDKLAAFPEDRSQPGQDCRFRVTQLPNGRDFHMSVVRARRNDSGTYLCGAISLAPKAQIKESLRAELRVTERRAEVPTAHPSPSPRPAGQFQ
# [1] = molecular target: T1, biotinylated IL-2 receptor beta gamma …; assay: ELISA, captured complex, biotin-IL-2RBG 10 nM, PD-1 Fc titrated
# Description: The DBA-cytokine complexes and control antibody-cytokine complexes were produced in two formats: (1) “Symmetric” immunocytokine (shown in FIG. 2E); or (2) “Asymmetric” immunocytokine (shown in FIG. 2B) by expression in mammalian cells and purified using standard protocols. […] To perform the assay, 384-well ELISA plates were coated with anti-Fc antibody at 1 micrograms/ml in 100 mM bicarbonate solution pH 9.0 overnight at 4° C. and washed twice with SUPERBLOCK™. Antibody-cytokine complexes were then added to each well at a constant concentration of 6 nM and allowed to incubate for 1 hour and washed three times in PBS plus 0.05% TWEEN® 20 (PBST). Titrated concentrations of PD-1 Fc or an IgG1 control Fc were added and allowed to incubate for 15 minutes before the addition of a constant amount of biotinylated IL-2RBG at 10 nM. The plates were incubated for an additional 30 minutes, washed and biotinylated IL-2RBG detection was performed using streptavidin-HRP and standard ELISA protocols.
Binder,"IL-2 activity EC50, HEK-Blue IL-2 reporter cells, IgG1 coated wells (control) (PD-1-Fc) [nM]","IL-2 activity EC50, HEK-Blue IL-2 reporter cells, PD-1 coated wells (PD-1-Fc) [nM]","IL-2 activity EC50, HEK-Blue IL-2 reporter cells, control wells (PD-1-Fc) [nM]",binding result [1]
B1,0.062,0.031,,
B2,,0.031,0.062,
B3,,0.026,0.064,
B4,,,,binds

# Source: patent US20240366776A1 (Hoffmann-La Roche, published 2024)
